Protein production data for 17 sequences are collected here from a protein production outcome set (Wang et al. 2014).
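Note: failed if final PepcDB status was selected cloned or expressed and not failed if soluble or beyond.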

This data set can be described thus: label from the status in PepcDB records.
For “MNNRFNGTSIKQYSTTFLLLGSMASAAHVRAADEFHPNSFNSEALKQSMIAEFALAYDDVPTAIHNYTVLAIKSNSTSIKQRALDIALEYNDLKAALDIATHWVVQEPEDVPAMFYLAHIALRAHEYKLAANTLDKILNIDPNADLEQILAGIAPESKEDRENLLETLKTSKEKENPSILVMIAGLEAQNGHLQDALINTNRALRKRPKVTGFILMKANLLIGLNDIEGAQKWYAKSSKRHRDNLDIRLAEARFLIRHNESELALKKLEDIIKTWPDAEDAKFIAGLTSIDLKQYEKAEQYLVDLRYSAKYQNDAYYYLAVNAERKQHFETAKAYYRLVDGSLYVVSRRNLVSIFEKQGNLNDALRFLTQERVNYPQHASFLYQAQAEILKKTGNKKAALRLLDEAIKNISDDPELIYAEVLLLDPFSDRDKLDRTLKQLLLIEPNSPTYLNAYAYTLALQNRRLDEARQYAELALEYAPEQASILDTLGYIAFLQNDYAAAATSLGKAYTLSNNVNIGIRFAKALYMQGNLTEFSEVLQQLKEKNANDPQLKQLDALILPTVTKKS”, the protein production result is on record as “failed”.
As for “MTNQDNNHQLNHRIYHFEKIYKAIKHVIVFIFMIFIAIVAIAVIAMSLYFHHLTKTSDSLSDDALIKKVRQIPGDELLDHNNKNLLYEYNHSQNSLIIGPKTSSPNVIKALTSSEDTLFYKHDGILPKAILRAMIQDIFNTDQSSGGSTITQQLVKNQVLTNEKTYSRKANELRLAIRLEHLLSKDEIIYTYLNIVPFGRDYNGANISGIASASYSLFGIPPKDLSIAQSAYLIGLLQSPYGYTPYEKDGTLKSDKDLKYSIQRQHYVLKRMLIEDQITEKEYNDALKYDIKSHLLNRKKR”, the protein production result was “failed”.
For the sequence “MPLVHRSALPALCLSLILPWTFSVQAADPAPETKTPEEQPAQRQPLPERSQKDAAALERQLPALEQQQLQAGGDTFLALWKPANTSDPKGVVIILPGAGETADWPQAIAPLRNKLPDTEWASLSLTLPDMLSEAAQPRVVEAAPVPTDKANTAKDASTEAKPIEQVAGGEADVADRVVAESTEEQIKADAERIFTRVDAALAFAEQQNARSIVLLGHGTGAYWAARYLSEKQPAQVQKLVMVAAQSPANGKPQLAEITPTLKLATADFFYVDKPLAQKAALERLQASKRLKHSNFSQIPLKALPGNNTAQQEQLFRRVRGWLNPQNTDS”, the protein production entry is recorded as “not failed”.
For the sequence “MPFEDALAIVNAAMQTLLGRQLSDIETLIFEGSWQSKTYPQIADGAGYSINYLTTDVGPKFWKVLSQALGEPVNKKNFKAAIRRYCVVQSGGEWESEGFQTQLPSYPSILSWGEAPDVSQFYGREEEQALLQRWIEAERCRLIAVLGMGGIDKSTLTTKVVQGFVQGDGVEEWEGDNINIKKIQNPLQEGQSPTKFKIQHLPSSPATPFTHIIWRSLRNAPPLEALLAELIDLLSEHQETVGDRARLLHWLRKTRCLIVLDNLETILQAGDHAGYYRDGYGDYGELIQLLGETPHQSCVLLTSREKPAEIAVLEGLDGNTRTLQLSGSVATAIAIIQQKGLQGTEEQQQVLCDRYSYNPLALKIVSTTIQDLFDGDISAFLTEDAVIFNSIRRLLDAQFQRLTELEQAIIIWLAINRDWTAIAELAADLVPPVPKVKLLEALESLRWRGLIETQDKRYTLQPVVMEYVTERFIEQINQELEMGQPQYWQQFALLKLTVRDHITETQRRLIVHSTAAQFGDCFPSPELQRQQLQTVLTAIRESVIAGYGVGNLINLSNALDLDLAGFDFSQLTIRQADLRHRLFQHLNFAQANFRDSAFKQTFGSIFSLSYSPAGDYLITGDDVGVVRLWKSAEMQPMQSYPLHRSYVWDLRPSADGRWLATCSEDQTVKITNLATGQLQATLVVAPTIARAIVWIGPDCLAIGGIDGHIRLWYPFTEQAPVLVTAHTDIVNSLSWDANSNLLASSSSDSTVKLWDVETGICHRIWREAVPVRWATWSPDGHTLAISREDGGIVLWNPHSDQAPRYLNGHPETVWSLDWNPDGAWLASSSHDATVRLWDVVTGRCRRILRSHQNWVWYARWHPHQPRIISGGHDGTLKLWDTGTGQCLKSLTGHMANIRAIAPAPDGQTLALGCDDTIVRLCGADSPPSFIHAFGHSHLISDLCWNPTGENLASASHDCNLRVWQRSPLRCTQVLKGHTNWVWSVDWHPTQDLLASGSVDSTIRLWYPTQSTPVKTLMAQTSWILSVRWHPTGRWLASAAGDFTIGLWNSKTWECTHLLTGHTHWIWCLAWSPNGQYLASGGYDNTVFIWKVEKEVTSLRTLEHPTILSAIAWHPDGELLATSCHDGNIRLWHWQTGQCVTRISGHQGEILTLKFSPDGKRLYSSSQDETWKTWDWQTGTCLASDRLDRPYEGMNISEVRGLTEVRKAALRALGATEGSQPPGDLVRWLRKTEQGRKL”, the protein production entry was “failed”.
Consider “MSRKVILTCAVTGNAPFNPKHPSMPITPAQIADACVEAAKAGASVAHIHVRDPKTGGGSRDPVLFKEVVDRVRSSGTDIVLNLTCGLGAFLLPDPEDESKALPESDVVPVAERVKHLEDCLPEIASLDITTGNQVEGKLEFVYLNTTRTLRAMARRFQELGIKPELEVFSPGDILFGKQLIEEGLIDGVPLFQMVLGVLWGAPASTETMIYQRNLIPANAQWAAFGIGRDQMPMMAQAALLGGNVRVGLEDNLYLSRGVFATNGQLVERARTVIEHLGMSVATPDEARDIMGLSRPA”, for which the protein production entry is reported as “not failed”.
With “MSTIDFRPYGGFIFDMDGTLIDTMPAHLAAWQATADRFDFPFCQEWLHSLGGMPSFKIVAELNRHYGLSLDPQTVSKFKMETFAAMELQGDVIQCTGIVLEEYLGQKKIAVGTGSQRESAMRLLSHAGLIDRLDAVVTASDVENHKPCPDTFLLAADRLGIDAQNCLVFEDTELGKRAAHSAGMDCVMVEGNNLVFYPKR” the entry was “not failed”; with “MRQIRYAYAVAVDALYTFLADDGWAIASHIALSTLMALFPFLIVLTSLAGFVGSRELADSAAELLLDVWPAQVASTLSGEIHDVLTTTRGGVLTIGLVLALYFASNGVESLRVGLNRAYAVIEPRPWYLLRLESIGYTLVAAFTALAMGFLIVLGPLIVATARHYVPLLVHDNEPLLTFARYGIAITALTVALFLLHAYLPAGRRSFRQILPGIVFTITASLISGMTFGMYLARFANNYVSMYAGLASVIIALVFLYFIAAIFVYGGELNAAIIKSRLPEGTTLQEAQLRAPGAKPV”, “not failed”; with “MTEHCGAIKYFKSNFRRKRCLDFVCLTNLMFGLGSTPHGQVERADENNTLDLNNLPDDPSRDIFPFFEEGGFREKQTKDGKEYECRFCSLKFFKSQALGGHMNRHRQERETESLNKARELVLRNDSFPPHQGPPSFSYHQGDVHIGDLTQFKPMMYPPRHFSLPGSSSILQLQPPYLYPPLSSPFPQHNTNIGNNGTRHQTLTNSVCGGRALPDSSYTFIGAPVANGSRVAPHLPPHHGL”, “failed”.
On to “MSTSWRIRIMLTIHAKLVEAMLAQAHKDHPFEICGVIAGPEKSNLPLRLIPMRNAAQSETFFKFDPQEQLQVWREMEARGEEPIVIYHSHTHTPAYPSRTDVQYASQPQSHYVIVPTDPAYGEEIRSFRILDGMVTEERIRMINSYKAEWELSMEAMVALEHHHHHH”, for which the protein production entry is given as “not failed”.
With “MIADDPHLELRLAASERDLRAAQRLRYTVFVEELGGDGDLVDHAERLERDEFDDLCDHLLLIDRRRDAAALEDVVGVYRLLPGERAAGAGRFYCDSEYDLDPLRASGRRVLELGRSCVHPDYRGGAAVFLLWSGLADYALAQRTELLFGVASFHGTDIEALAEPLSYLHAFHLAPEELRVRARSEGGQRMDLIPPERIDRRAAMLA”, the protein production entry is on record as “not failed”.
“SSKVIIPKIVGHRGVGKEGLAPENTLRSFVLCMERNIPYIETDLRVCKTGEIVLFHGTPEGTIPFYKDGTSRIGDLSLEELKRLDVGGGHTIPSLEELFVAIEEQKFNLKLNLELKGEEWKRKESGDHQRLLLLVEKYHMQERVDYCSFHHEALAHLKALCPDVKITYLFNYMGQPTPLDFVEQACYGDANGVSMLFHYLTKEQVCTAHEKGLSVTVWMPWIFDDSEEDWKKCLELQVDLICSNYPFGLMNFLSNISE”: the protein production result is “not failed”.
With “MPAYVFSKESFLKFLEGHLEDDVVVVVSSDVTDFCKKLSESMVGEKEYCFAEFAFPADIFDADEDEIDEMMKYAIVFVEKEKLSEAGRNAIR” the entry was “not failed”.
As for “MSLIDFHVHLDLYPDPVAVARACEERQLTVLSVTTTPAAWRGTLALAAGRPHVWTALGFHPEVVSERAADLPWFDRYLPETRFVGEVGLDGSPSLRGTWTQQFAVFQHILRRCEDHGGRILSIHSRRAESEVLNCLEANPRSGTPILHWYSGSVTELRRAISLGCWFSVGPTMVRTQKGAALIRSMPRDRVLTETDGPFLELDGQAALPWDVKSVVEGLSKIWQIPASEVERIVKENVSRLLGTVREGHHHHHH”, the protein production result is reported as “not failed”.
For “MRTPTTILLLVGAILFSGAGYVRSDASDHRYKEGDTVPLYANKVGPFHNPSETYRYFDLPFCIPEGVKEKKEALGEVLNGDRLVSAPYKLNFRDEKESEVYCNKKLSKEEVKQFRKAVEKDYYFQMYYDDLPIWGFIGKVDKDIKSDPSEFKYFLYKHIQFEILYNKDRVIEISARMDPHSLVDLTEDKEVDAEFMYTVKWKETETPFEKRMEKYSMSSSLPHHLEIHWFSIINSCVTVLLLTGFLATILMRVLKNDFMKYAQDEEAADDQEETGWKYIHGDVFRFPTHNSLFAASLGSGTQLFTLTIFIFMLALVGVFYPYNRGALFTALVVIYALTSGIAGYTSASFYCQLEGKSWVRNLLLTGCLFCGPLFLTFCFLNTVAITYTATAALPFGTIVVIVLIWTLVTSPLLVLGGIAGKNSKAEFQAPCRTTKYPREIPPLPWYRSAIPQMAMAGFLPFSAIYIELYYIFASVWGHRIYTIYSILFIVFIILIIVTAFITVALTYFQLAAEDHQWWWRSFLCGGSTGLFIYAYCLYYYYARSDMSGFMQTSFFFGYMACICYGFFLMLGTVGFRAALLFVRHIYRSIKCE”, the protein production entry is given as “failed”.
Regarding “MAFLKVVPLEKALEVVQSFKISPGIEEVPIEKGLGRIAAEDIYSPIDVPPFDRATVDGYAVRAEDTFMASEASPVRLKVIGSVHAGEEPKFKLGKGEAAYISTGAMLPGNADAVIQFEDVERVNGEILIYKPAYPGLGVMKKGIDIEKGRLLVKKGERLGFKQTALLSAVGINKVKVFRKPKVAVISTGNEIVPPGNELKPGQIYDINGRALCDAINELGGEGIFMGVARDDKESLKALIEKAVNVGDVVVISGGASGGTKDLTASVIEELGEVKVHGIAIQPGKPTIIGVIKGKPVFGLPGYPTSCLTNFTLLVVPLLLRALGREGKIGKKVARLKHKVFSVKGRRQFLPVKLEGDLAVPILKGSGAVTSFIDADGFVEIPETVESLDEGEEVEVTLFKGW”, the protein production result was “not failed”.
In the case of “RQLSRHTYAVRALTDIDDFNAQFNTDFDDEEVDTIGGLIMQTFGYLPKRGEEIILKNLQFKVTSADSRRLIQLRVTVPDEHLAEMNNVDEKSE”, the protein production result is “failed”.
As to “MSLRAKLIWPILVFITAIFVASKGYTSYTAYQSSKHELVEQTRKLINNVSYSIKDALTTKNKRKAQTILADLIEQPNVSRVKLYDRANELFVLLEGSGESAPVPNQNERSKLDALGYALSAKFLYVLEPIIHEGHVIGSIRVTLSYIPIINAQHSFLKDAGVLLLILAAGGIIFYITIDRIILRPLLDLNGAIQDVTFGNASHVQIRHHSKDELGEVIHAFNRMMTKLRKREKQRQHSLATLEQKRAFSEEVIESIQYALVITDNLGTIIHSNAATQHIFQKTPEALENANIRDLIKTKMPNELSQILSRCLECDDIHLQNIDNEQQLSLTTRRLSNHGYLLFAIQDITEIEEAMNRQRVAGRVFEASQDGLIVLNHKGVITMVNPAVTKLVGLEIDQLVGQSFIQTIRWRKLQEMMPSIIESIENYGVWQGEVIEQNHLGLLVPMFARVNRIVKCENNGFYDLVIILTDLSNAKEMERLEYLAHHDALTGLANRSKFHLELEDLVQRSGYQRDEFAVLYLDLDGFKEINDTYGHDAGDEVLKRVADRLTSATRHSDLIARLSGDEFVMLVNPANQKVVTRIAEQLLESICAPIEYKGNELKVGVSIGVKLVGVNERDATRILKSADTAMYQAKKAGKGQAILMGCELQETV”, the protein production result is “failed”.
